# Reference: patent publication US20070196354A1, “Method of treating diabetes by inhibiting degradation of at least one of crebl1, atf6, and hnf-4 alpha by htra” (priority 2003, published 2007)
# T1: ATF6 (Homo sapiens, UniProt P18850)
# T1 construct: expressed in transfected cells; host or cells: HEK293T
# T1 sequence (P18850 1-670): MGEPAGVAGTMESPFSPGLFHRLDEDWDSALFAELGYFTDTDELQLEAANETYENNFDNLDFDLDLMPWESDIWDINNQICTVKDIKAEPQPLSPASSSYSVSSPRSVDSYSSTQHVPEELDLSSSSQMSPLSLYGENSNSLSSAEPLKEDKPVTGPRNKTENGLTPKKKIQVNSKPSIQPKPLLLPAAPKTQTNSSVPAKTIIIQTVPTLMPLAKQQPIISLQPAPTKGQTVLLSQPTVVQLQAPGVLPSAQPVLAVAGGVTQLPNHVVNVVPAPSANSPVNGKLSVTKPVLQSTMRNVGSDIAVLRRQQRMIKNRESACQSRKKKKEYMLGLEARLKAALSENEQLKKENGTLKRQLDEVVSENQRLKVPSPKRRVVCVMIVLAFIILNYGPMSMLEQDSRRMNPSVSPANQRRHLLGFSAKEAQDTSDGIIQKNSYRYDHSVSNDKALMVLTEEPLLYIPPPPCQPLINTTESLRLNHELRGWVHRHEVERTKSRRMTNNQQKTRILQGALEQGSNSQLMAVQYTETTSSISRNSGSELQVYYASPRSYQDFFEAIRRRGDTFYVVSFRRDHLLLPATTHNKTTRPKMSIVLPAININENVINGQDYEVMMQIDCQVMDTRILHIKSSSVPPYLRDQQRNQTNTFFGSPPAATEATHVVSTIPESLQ
# B1: mature HtrA2: SEQ ID NO: 4; mature protein generated from HtrA2 precursor by cleavage of N-terminal 133 residues, has protease activity (protein, listed as Homo sapiens)
# chain: MAVPSPPPASPRSQYNFIADVVEKTAPAVVYIEILDRHPFLGREVPISNGSGFVVAADGLIVTNAHVVADRRRVRVRLLSGDTYEAVVTAVDPVADIATLRIQTKEPLPTLPLGRSADVRQGEFVVAMGSPFALQNTITSGIVSSAQRPARDLGLPQTNVEYIQTDAAIDFGNSGGPLVNLDGEVIGVNTMKVTAGISFAIPSDRLREFLHRGEKKNSSSGISGSQRRYIGVMMLTLSPSILAELQLREPSFPDVQHGVLIHKVILGSPAHRAGLRPGDVILAIGEQMVQNAEDVYEAVRTQSQLAVQIRRGRETLTLYVTPEVTE
# modifications: mature HtrA2
# Target: T1, ATF6
# Test: In vitro protease assay, ATF6 captured on resin
# Assay type: biochemical
# Settings: 50 μg/ml, 37° C., four hours (4 h) or overnight (O/N), anti-c-Myc detection
# Experimental: CREBL1 and ATF6 which were captured on the resin were used in the experiments in order to eliminate the influence of proteinaceous impurities contained in the soluble fractions prepared from the cells obtained by transfecting an expression plasmid of CREBL1 or ATF6. Three hundreds μl of each soluble fraction of CREBL1 and ATF6 was dispensed to six tubes (Nos. 1 to 6), followed by adding 20 μl of protein G sepharose 4 FF (Amersham) of 50% slurry that had been subjected to blocking with BSA, to each of tubes, subjected to overturned mixing at 4° C. for 1 hour, and then subjected to centrifugation (10,000 rpm, 10 sec, 4° C.) to collect the supernatant, and thus the pre-treatment (pre-clean) was performed. The resultant supernatant was mixed with 1.7 μl (2 μg) of anti-Myc antibody (Invitrogen), subjected to overturned mixing at 4° C. for 3 hours, followed by adding 20 μl of protein G sepharose 4 FF that had been subjected to blocking with BSA, and then subjected to overturned mixing at 4° C. overnight. Thus, CREBL1 and ATF6 were respectively captured on protein G sepharose 4 FF. […]
molecule,measurement,value
B1,degradation of ATF6 (band by western blotting),the band of ATF6 was reduced significantly
